Results published in patent US20100223690A1, “COMPOSITIONS AND METHODS FOR MODULATING PLANT DISEASE RESISTANCE AND IMMUNITY” (Washington State University, published 2010).

Assays:
[1] = molecular target: Ca2+/calmodulin (endogenous, in Arabidopsis plants) (Arabidopsis thaliana); experiment: cell-based or functional assay
[2] = molecular target: T1, AtSR1 (CAMTA3) CG-1 DNA-binding domain (Arabidopsis thaliana, UniProt Q8GSA7 SEQ:1-153); experiment: EMSA; Ca2+/CaM-independent; conditions: tags: 6xHis (pET32a)
T1 sequence: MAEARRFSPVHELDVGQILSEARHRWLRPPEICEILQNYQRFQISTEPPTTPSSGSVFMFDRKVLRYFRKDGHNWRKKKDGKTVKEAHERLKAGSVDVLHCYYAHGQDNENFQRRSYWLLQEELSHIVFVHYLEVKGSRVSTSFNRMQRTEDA
Method: (§1) The E. coli strain BL21(DE3)/pLysS carrying the above pET32a derived plasmids for expression of recombinant proteins of the wild-type and mutated versions of AtSR1, AtSR6 or ABF1 were induced with 0.5 mM IPTG for 3 hours. 6×His tagged recombinant proteins were purified using Ni-NTA agarose affinity beads (Qiagen) as described by the manufacturer. Recombinant AtSR1 or AtSR6 covering CG-1 domain, or ABF1 was used for EMSA³² to detect its interaction with WT or mutated EDS1 promoter fragments. Recombinant AtSR1 containing CaMBD was used for CaM overlay assay³⁸.

[3] = molecular target: T1, AtSR1 (CAMTA3) CG-1 DNA-binding domain; experiment: EMSA; binding is ACGCGT-dependent; conditions: tags: 6xHis (pET32a)
Method: as §1

Molecule	level of SA in complemented plants [1]	other results
full-length AtSR1 I909V fused to Flag tag, expressed from 35S::AtSR1I909V in atsr1-1 plants (from UniProt Q8GSA7 1-1032)	60 % of WT	
full-length wild-type AtSR1 fused to Flag tag, expressed from 35S::AtSR1 in atsr1-1 plants (from UniProt Q8GSA7 1-1032)	60 % of WT	
EDS1P probe (-762 to -731) (dsDNA) DNA 1: GTAAAAGTCGAATGTGACGCGTCTTGCCGAAC DNA 2: GTTCGGCAAGACGCGTCACATTCGACTTTTAC		binding result [2]: binds
eds1p mutant probe (dsDNA, [19 (G>C)]) DNA 1: GTAAAAGTCGAATGTGACCCGTCTTGCCGAAC DNA 2: GTTCGGCAAGACGGGTCACATTCGACTTTTAC		binding result [3]: no binding
